Data on 4 molecules can be found in publication PMC9210550.

Residue numbers refer to the chain shown, from its start. Read-outs that look alike come from different tables or passages of the source.

Data set [1] addresses T1, ZCCHC8 core (NEXT subunit);RBM7 core (NEXT subunit);MTR4 (human;human;human, UniProt Q6NZY4;Q9Y580;P42285 1-415+508-707;6-86;1-1042, internal_change||). Description: cryo-EM.
For data set [2], the target named is T2, ZCCHC8 core (NEXT subunit);RBM7 core FAFA;MTR4 (human;human;human, UniProt Q6NZY4;Q9Y580;P42285 1-415+508-707;6-86;1-1042, internal_change|F13A;F52A|). Briefly: EMSA. On the technique in general: In EMSA bound probe runs differently from free probe, usually more slowly.
The target of data set [3] is T1, ZCCHC8 core (NEXT subunit);RBM7 core …. Description: EMSA.
Data set [4] has as its target ZCCHC8 core delta HD;RBM7 core (NEXT subunit);MTR4 (human;human;human, UniProt Q6NZY4;Q9Y580;P42285 176-415+508-707;6-86;1-1042, internal_change||). Description: EMSA.
For data set [5], the target named is T1, ZCCHC8 core (NEXT subunit);RBM7 core …. Description: EMSA. The source holds these as a separate data set.
Data set [6] concerns the target T2, ZCCHC8 core (NEXT subunit);RBM7 core …. Briefly: EMSA. The source holds these as a separate data set.
Data set [7] concerns the target ZCCHC8 core delta ZK;RBM7 core (NEXT subunit);MTR4 (human;human;human, UniProt Q6NZY4;Q9Y580;P42285 1-226+245-415+508-707;6-86;1-1042, internal_change||). Description: EMSA.
Data set [8] has as its target T1, ZCCHC8 core (NEXT subunit);RBM7 core …. Description: cryo-EM. The source holds these as a separate data set.

B1: cryo-EM substrate 2 (dsRNA)
RNA 1: GGCGCGCGCCAAAAAUUUUUAAAAAAAAAA
RNA 2: B1 RNA 1
With B1, the binding result in data set [1] is “binds”.

B2: 3' A5U5A10-tailed RNA duplex (dsRNA)
RNA 1: AGUGCGCUGUAUCUUCAAGGCCACU
RNA 2: AGUGGCCUUGAAGAUACAGCGCACUAAAAAUUUUUAAAAAAAAAA
On to B2, for which the binding signal in data set [2] is approximately 3 fold weaker than NEXT; in data set [4], approximately 2 fold weaker than NEXT. In data set [3], this molecule returned a Kd of 42 nM.

B3: 3' A20-tailed RNA duplex (dsRNA)
RNA 1: AGUGCGCUGUAUCUUCAAGGCCACU
RNA 2: B2 RNA 2 with U31A, U32A, U33A, U34A, U35A
B3: the binding signal was ~10 fold weaker than NEXT on A5U5A10 tail in data set [5], ~2 fold weaker than NEXT on A20 tail in data set [6] and ~4 fold tighter than NEXT on A20 tail in data set [7].

In the case of ACAUGAGGAUCACCCAUGUAAUCUCUUUCAAAAAAUACAAAAAAAA (structured_RNA, 2'-pyrene modified U at position 36) [cryo-EM substrate 1], the binding result in data set [8] is on record as “binds”.

What is called Kd is the equilibrium constant for the complex coming apart.
